Earlier results on one substance are cited in paper PMC5021969.

pKd: −log10 of the molar value.

The data set concerns the target CXCL1 (Mus musculus) (UniProt P12850).

Take CXCL1 (from UniProt P12850): the pKd was 5.00.

Usually pKd stands for the Kd on a negative log10 scale, so that one unit is a factor of ten.
